Data: patent US20030144205A1 (published 2003)

B1: Myosin light chain, alkali, non-muscle (MYLN) (other, mouse, UniProt Q60605 1-151, looked up)
chain: MCDFTEDQTAEFKEAFQLFDRTGDGKILYSQCGDVMRALGQNPTNAEVLKVLGNPKSDEMNVKVLDFEHFLPMLQTVAKNKDQGTYEDYVEGLRVFDKEGNGTVMGAEIRHVLVTLGEKMTEEEVEMLVAGHEDSNGCINYEAFVRHILSG
notes: Prey from the ovary cDNA library (pGADT7); Tags as for the other preys
B2: proteasome subunit β, type 1 (PSMB1) (other, mouse, UniProt O09061 1-240, looked up)
chain: MLSTAAYRDVERELGMGPHGSAGPVQLRFSPYAFNGGTVLAIAGEDFSIVASDTRLSEGFSIHTRDSPKCYKLTDKTVIGCSGFHGDCLTLTKIIEARLKMYKHSNNKAMTTGAIAAMLSTILYSRRFFPYYVYNIIGGLDEEGKGAVYSFDPVGSYQRDSFKAGGSASAMLQPLLDNQVGFKNMQNVEHVPLTLDRAMRLVKDVFISAAERDVYTGDALRICIVTKEGIREETVPLRKD
notes: In vitro: HA tagged; CHO cells: C-terminal MYC tag; 25 kDa; also called Proteasome beta type 1 subunit (PSMB1); pGADT7-PSMB1
B3: Solute carrier family 25, member 5 (SLC25A5) (other, mouse, UniProt P51881 1-298, looked up)
chain: MTDAAVSFAKDFLAGGVAAAISKTAVAPIERVKLLLQVQHASKQITADKQYKGIIDCVVRIPKEQGVLSFWRGNLANVIRYFPTQALNFAFKDKYKQIFLGGVDKRTQFWRYFAGNLASGGAAGATSLCFVYPLDFARTRLAADVGKAGAEREFKGLGDCLVKIYKSDGIKGLYQGFNVSVQGIIIYRAAYFGIYDTAKGMLPDPKNTHIFISWMIAQSVTAVAGLTSYPFDTVRRRMMMQSGRKGTDIMYTGTLDCWRKIARDEGSKAFFKGAWSNVLRGMGGAFVLVLYDEIKKYT
notes: Prey from the ovary cDNA library (pGADT7)
B4: Cytochrome C oxidase subunit II (MT-CO2) (other, mouse, UniProt P00405 1-227, looked up)
chain: MAYPFQLGLQDATSPIMEELMNFHDHTLMIVFLISSLVLYIISLMLTTKLTHTSTMDAQEVETIWTILPAVILIMIALPSLRILYMMDEINNPVLTVKTMGHQWYWSYEYTDYEDLCFDSYMIPTNDLKPGELRLLEVDNRVVLPMELPIRMLISSEDVLHSWAVPSLGLKTDAIPGRLNQATVTSNRPGLFYGQCSEICGSNHSFMPIVLEMVPLKYFENWSASMI
notes: as for B3
B5: Microfibrillar-associated protein 2 (MFAP2) (other, mouse, UniProt P55002 17-183, looked up)
chain: QGQYDLDPLPPFPDHVQYNHYGDQIDNADYYDYQEVSPRTPEEQFQSQQQVQQEVIPAPTPEPAAAGDLETEPTEPGPLDCREEQYPCTRLYSIHKPCKQCLNEVCFYSLRRVYVVNKEICVRTVCAHEELLRADLCRDKFSKCGVMAVSGLCQSVAASCARSCGGC
notes: as for B3
B6: mouse RFPL4, full-length (amino acid residues 1-287) (other, UniProt Q8VH31 1-287, looked up)
chain: MAHLFKEKSNCYFCFRCLESPVYLNCGYICCLKCLDSLEKSPEGDGVLCPTCSVVSLKEDIIHAKQLGALVTKIKNLEPQLNFILTMDQGMKIFQVTMTLDVDTAQNHLIISDDLLSVYYTPQKQARKKCAERFHPSPCVLGSSRFTSGRHYWEVVVGTSKEWDIGICKESINRKKAIHLSEKNGFWTVGVRAKKVYSASTDPLTVLRVNPRLRRVGIFLDMLEKSVSFWDLSDGSHIYTFLEIPDTDPFRPFFSPASSYPDGDQEQVLSICPVTNPGIFGIPVNPQ
notes: One entry is used for all tagged forms; CHO cells: C-terminal FLAG (pCMV-Tag4A) or C-terminal MYC (pCMV-Tag5A); Western blot: endogenous protein in mouse tissue lysates; also called mRFPL4; pGBKT7-RFPL4
B7: cyclin B1, full-length (other)
chain: MALRVTRNTKINAENKAKVSMAGAKRVPVTVTAASKPGLRPRTALGDIGNKVSEELQARVPLKREAKTLGTGKGTVKALPKPVEKVPVCEPEVELAEPEPEPELEHVREEKLSPEPILVDNPSPSPMETSGCAPAEEYLCQAFSDVILAVSDVDADDGADPNLCSEYVKDIYAYLRQLEEEQSVRPKYLQGREVTGNMRAILIDWLIQVQMKFRLLQETMYMTVSIIDRFMQNSCVPKKMLQLVGVTAMFIASKYEEMYPPEIGDFAFVTNNTYTKHQIRQMEMKILRVLNFSLGRPLPLHFLRRASKVGEVDVEQHTLAKYLMELSMLDYDMVHFAPSQIAAGAFCLALKILDNGEWTPTLQHYLSYSEDSLLPVMQHLAKNVVMVNCGLTKHMTVKNKYAASKHAKISTLAQLNCTLVQNLSKAVTKA
notes: 47 kDa; also called Ccnb1; CCNB1
B8: ATP synthase, H+ transporting, mitochondrial F0 complex, subunit F (ATP5J) (other, mouse, UniProt P97450 1-108, looked up)
chain: MVLQRIFRLSSVLRSAVSVHLKRNIGVTAVAFNKELDPVQKLFVDKIREYKSKRQASGGPVDIGPEYQQDLDRELYKLKQMYGKGEMDTFPTFKFDDPKFEVIDKPQS
notes: as for B3

Experiments:
[1] = target: B6; experiment: yeast two-hybrid mating screen of the ovary cDNA library with pGBKT7-RFPL4 as bait
[2] = target: B6; experiment: yeast two-hybrid cotransformation
[3] = target: Lysosomal-associated protein 4 (LAPTM4A) (mouse, UniProt Q60961 1-233); experiment: yeast two-hybrid cotransformation
[4] = target: T1, HR6A (Ube2a), full-length (mouse, UniProt Q9Z255 1-152); experiment: yeast two-hybrid cotransformant growth/fluorescence assay
T1 construct: also called pGADT7-HR6A; MYC-tagged HR6A
T1 sequence (Q9Z255 whole entry): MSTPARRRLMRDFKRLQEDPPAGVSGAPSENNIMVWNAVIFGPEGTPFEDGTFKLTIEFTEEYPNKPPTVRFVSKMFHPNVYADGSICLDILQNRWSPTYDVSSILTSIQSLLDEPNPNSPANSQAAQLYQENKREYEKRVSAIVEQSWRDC
From the text: (§1) Briefly, after inoculation, the initial fluorescence was checked and the cells were allowed to grow for 40 hr, and then the fluorescence of an oxygen sensitive dye using the [sequence] Biosensor kit (Clontech) was rechecked. Fluorescence was excited at 485 nm, and emission was read at 630 nm. To find the fold increase in fluorescence, an indication of yeast growth in selection media, the fluorescence intensity at time t=40 hr was divided by the initial intensity recorded at time t=0 hr (Fluorescence(t40)/Fluorescence(t0)). The values shown were the means of triplicate measurements of three independent transformants. Standard deviations were indicated by the error bars.

[5] = target: the molecule itself; experiment: as above
From the text: as §1

cyclin B1, full-length = target: B7; experiment: co-immunoprecipitation of 35S-labelled proteins translated in vitro in reticulocyte lysate
Method: The pGBKT7 (MYC-Tagged) and pGADT7 (HA-Tagged) vectors were used as templates for in vitro transcription/translation using [³⁵S]Met and the TNT T7 Coupled Reticulocyte Lysate System (Promega, Madison, Wis.). In vitro translated proteins were combined at room temperature for 1 h, and reciprocal co-immunoprecipitation experiments were performed using mouse anti-MYC monoclonal or rabbit anti-HA polyclonal antibodies (Clontech).
Epitope tagged bait and prey proteins were transcribed by T7 polymerase from pGBKT7 and pGADT7 templates without DNA binding or transactivation domains. As positive control vectors, pGBKT7-murine p53 (MYC-epitope tagged) and pGADT7-SV40 large T (HA-epitope tagged) were used. ³⁵S-methionine was included in translation mixtures to generate products detectable by autoradiography.

[6] = target: T1, HR6A (Ube2a), full-length; experiment: anti-FLAG co-immunoprecipitation from lysates of cotransfected CHO cells (FLAG-tagged cyclin B1)

Binder: B1
# of clones [1]: 3 clones

Binder: B2
# of clones [1]: 7 clones

Binder: B3
# of clones [1]: 1 clones

Binder: B4
# of clones [1]: 2 clones

Binder: B5
binding result [2]: no binding | # of clones [1]: 1 clones

Binder: B6
binding result [3]: no binding | binding result [4]: binds | binding result [5]: no binding | binding result (cyclin B1, full-length): binds

Binder: B7
binding result [6]: binds

Binder: B8
binding result [2]: no binding | # of clones [1]: 1 clones
